According to patent US8669345:
Each block holds one substance with its values, some of them ahead of it.

Columns and labels:
[1] = molecular target: Nogo1-40; assay: SPA competition: Ig-sNogoR1-310 added in rising amount [ug] against binding of 125I-Nogo1-40-C to sNogoR310
[2] = molecular target: sNgR310 (recombinant fragment of rat NgR1, aa 27-310) (rat) (UniProt Q99M75); assay: SPA, unlabelled Nogo66 (x axis Nogo66 Conc [M]) displacing 125I-Nogo66 from sNogoR310; Bound SPA cpm falls from about 2900 to about 2050; the unit stands on the axis, not in the table
sNgR310 (recombinant fragment of rat NgR1, aa 27-310) (rat), sequence (Q99M75 other isoform, or with tags, fused parts or gaps): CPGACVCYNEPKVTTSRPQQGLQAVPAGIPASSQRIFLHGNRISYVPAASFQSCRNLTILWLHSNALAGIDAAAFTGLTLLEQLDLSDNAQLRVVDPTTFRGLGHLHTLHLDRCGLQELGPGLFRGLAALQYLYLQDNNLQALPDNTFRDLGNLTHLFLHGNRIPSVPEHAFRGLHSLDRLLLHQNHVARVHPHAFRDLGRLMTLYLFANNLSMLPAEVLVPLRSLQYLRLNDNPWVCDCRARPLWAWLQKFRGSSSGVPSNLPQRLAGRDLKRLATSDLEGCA

[3] = molecular target: sNogoR310-Fc (rat) (UniProt Q99M75); assay: SPA, unlabelled Nogo1-40 (x axis Nogo1-40 [M]) displacing 125I-Nogo1-40-C from sNogoR310-Fc; the unit stands on the axis, not in the table
sNogoR310-Fc (rat), sequence (Q99M75 other isoform, or with tags, fused parts or gaps): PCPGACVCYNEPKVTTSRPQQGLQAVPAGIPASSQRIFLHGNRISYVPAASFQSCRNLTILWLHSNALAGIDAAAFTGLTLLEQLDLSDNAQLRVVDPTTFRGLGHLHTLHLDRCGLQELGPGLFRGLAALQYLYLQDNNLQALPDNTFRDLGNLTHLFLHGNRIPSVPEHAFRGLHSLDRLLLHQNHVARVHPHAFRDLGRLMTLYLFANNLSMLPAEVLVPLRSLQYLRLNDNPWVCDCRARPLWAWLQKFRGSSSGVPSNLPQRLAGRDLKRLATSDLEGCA

Nogo1-40, sequence (Q9NQC3 1055-1094): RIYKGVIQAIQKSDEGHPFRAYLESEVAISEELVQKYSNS
Nogo1-40 (peptide), sequence (Q9NQC3 1055-1094): as above

IC50 [1]: 0.1 µM
Substance: sNogoR310-Fc (from UniProt Q99M75 26-310) (Fc fusion)

EC50 [2]: 0.303 µM
Substance: Nogo66 (ligand)

EC50 [3]: 0.12 µM
Substance: Nogo1-40 (peptide)
